Experimental data from article PMC12622308.

Target: KFERQ-PAmCherry-Flag
Experiment: co-IP (IP: HA, IB: Flag), western blot quantification
Settings: HEK293T SIRT2KD cells; parent: est. 1.0; read off a plot

- ratio to parent: 1.6
Substance: HSC70-HA WT (from UniProt P11142) K557R
